The text below walks through data of article PMC11099923.

The target in experiment [1] is human α7nAChR deletion mutant Δ419-423, His-tagged (human) (UniProt P36544). In words: pull-down; His-tag α7nAChR (~3 μM) as bait mixed with strep-tag PICK1 PDZ (~10 μM), Ni-NTA resin, overnight at 4°C, 10 mM phosphate pH 7.8, 150 mM NaCl, 0.05% LDAO, two washes with 50 mM imidazole, elution with 500 mM imidazole, SDS-PAGE, band intensities.
Experiment [2] concerns the target human α7nAChR deletion mutant Δ428-432, His-tagged (human) (UniProt P36544). The experiment is described as above.
For experiment [3], the target named is α7nAChR (Homo sapiens) (UniProt P36544). Particulars: cited from earlier work.

In the case of “PDZ domain of human PICK1 (Protein Interacting with C-kinase 1), strep-tagged (from UniProt Q9NRD5 19-110) (domain or fragment)”, the reduction of pulldown compared to WT α7nAChR in experiment [1] was determined as 50%; in experiment [2], 85%.
Consider PICK1 PDZ (from UniProt Q9NRD5), for which, in experiment [3], the dissociation constant Kd is 3 µM.
